According to patent US20250346643A1, “TROPOMYOSIN KINASE RECEPTOR (TRK) LIGANDS AS THERAPEUTICS TO SUPPORT LIVER REGENERATION” (Vanderbilt University, priority 2024, published 2025):

How the values were obtained:
[1] = system: hepatocytic differentiated human ductal organoids; test: EdU incorporation in hepatocytic differentiated human ductal organoids (HDO); type: cell-based; conditions: for EdU+ cells compared to vehicle only: 20 ng/ml, 6 hours, William's E without L-glutamine (FIG. 19A-B)
Description: Human ductal organoids. The normal human liver tissue was obtained through the Cooperative Human Tissue Network (CHTN) at Vanderbilt University Medical Center. The liver was cut into very small pieces in liver digestion medium (Gibco, Waltham, MA; 17703-034). The cell suspension was filtered through a 100-μm cell strainer. The flow through was then centrifuged for 2 min at 100 g, 4° C., and the cell pellet resuspended in ice-cold DMEM (Gibco, Waltham, MA; 11885-084, supplemented by 5% FBS) and centrifuged for 2 min at 300 g. The cell pellet was gently resuspended in Matrigel® (Corning, Corning, NY; 356231) and a […] dome plated in a 24-well plate. The plate was incubated for 10-15 min at 37° C. After solidifying, complete HepatiCult™ Organoid Initiation Medium (OIM) (STEMCELL Technologies, Vancouver, Canada; 100-0384) was added. For passaging, the Matrigel dome was dissociated using TrypLE (Thermo Fisher Scientific, Waltham, MA; 12604013) and incubated at 37° C. for 5 mins. Organoids were washed by resuspending in advanced DMEM/F12 and consecutive resuspension of the organoid pellet. Organoids were resuspended at a 1:10 dilution in Matrigel® and cultured in complete HepatiCult™ Organoid Growth Medium (OGM) (STEMCELL Technologies, Vancouver, Canada; 100-0385) for organoid expansion. For hepatocytic differentiation of hepatic ductal organoids, culture medium was changed to complete HepatiCult™ Organoid Differentiation Medium (ODM) (STEMCELL Technologies, 100-0383) 4 days after passaging. Vehicle, NTF3, BDNF, HGF (20 ng/ml final concentration) or Taletrectinib (Fisher Scientific, Waltham, MA; 502030245, final concentration 10 nM) or torin2 (Fisher Scientific, Waltham, MA; s2817, final concentration 25 nM) were diluted in William's E (without L-glutamine) and added to organoids.
EdU incorporation and imaging in HDO and mpPHH. A chamber slide was pre-chilled on ice and coated with Matrigel®. Chamber slide was then incubated for 3 min at 37° C. to solidify and organoids plated in 0.02% Matrigel®/complete media into coated chamber slides. Organoids were grown in complete organoid growth media (OGM) for approximately 4 days followed by incubation in organoid differentiation media (ODM) for another 4 days. Organoids were changed to William's E medium 1 day prior to experiment. Vehicle or NTF3, BDNF, HGF (20 ng/ml final concentration each) or Taletrectinib (Fisher Scientific, Waltham, MA; 502030245, final concentration 10 nM) were diluted in William's E (without L-glutamine) and added to organoids. CLICK-iT™ EdU (EdU final concentration […] incubated together with the vehicle, NTF3, BDNF or HGF). After 6 hours, organoids were fixed with 4% paraformaldehyde and permeabilized with 0.5% Triton-X 100. Further processing was performed according to CLICK-ITT EdU manufacturer's instructions. mpPHHs were seeded on collagen coated chamber slides and grown in complete hepatocyte medium (Lonza, Basel, Switzerland). Prior to EdU incorporation assays, mpPHHs were cultured in William's E medium. Vehicle or NTF3, BDNF, HGF (20 ng/ml final concentration each) or Taletrectinib (Fisher Scientific, Waltham, MA; 502030245, final concentration 10 nM) were diluted in William's E (without L-glutamine) and added to mpPHHs. Organoids were imaged in PBS in chamber slides, mpHHs were mounted with fluoromount. Five to fifteen images of random high-power fields were obtained per experiment per treatment and EdU+/Hoechst 33342+ nuclei versus all Hoechst 33342+ nuclei quantified.

[2] = system: mouse passaged primary human hepatocytes; test: EdU incorporation in mouse passaged primary human hepatocytes (mpPHH); type: cell-based; conditions: 20 ng/ml each, 4 hours (FIG. 19E-F)
Description: Mouse passaged primary human hepatocytes. Mouse-passaged primary human hepatocytes (mpPHHs) were collected as previously described (Michailidis et al., Proc Natl Acad Sci USA. 2020; 117(3): 1678-1688) and cultured in hepatocyte culture media (CC-3198, Lonza, Basel, Switzerland) in collagen-coated chamber slides. Three days before treatment, mpPHH were incubated in William's E media (with L-glutamine). Vehicle, NTF3, BDNF, or HGF (20 ng/ml each) were diluted in William's E (without L-glutamine) and EdU (EdU Cell Proliferation kit, Alexa Flour 555, Thermo Fisher Scientific, Waltham, MA; C10638) was added to each well. mpPHH were incubated for 4 hours and the experiment terminated by fixing the mpPHH in 4% paraformaldehyde/PFA and permeablized with Triton X-100. Click-iT™ EdU staining was then performed according to the manufacturer's instructions. mpPHH were mounted with Flouromount G and imaged with Nikon confocal microscope. 5-15 images per treatment per experiment were randomly taken and EdU positive nuclei quantified.
EdU incorporation and imaging in HDO and mpPHH. A chamber slide was pre-chilled on ice and coated with Matrigel®. Chamber slide was then incubated for 3 min at 37° C. to solidify and organoids plated in 0.02% Matrigel®/complete media into coated chamber slides. Organoids were grown in complete organoid growth media (OGM) for approximately 4 days followed by incubation in organoid differentiation media (ODM) for another 4 days. Organoids were changed to William's E medium 1 day prior to experiment. Vehicle or NTF3, BDNF, HGF (20 ng/ml final concentration each) or Taletrectinib (Fisher Scientific, Waltham, MA; 502030245, final concentration 10 nM) were diluted in William's E (without L-glutamine) and added to organoids. CLICK-iT™ EdU (EdU final concentration […] incubated together with the vehicle, NTF3, BDNF or HGF). […] Five to fifteen images of random high-power fields were obtained per experiment per treatment and EdU+/Hoechst 33342+ nuclei versus all Hoechst 33342+ nuclei quantified.

NTF3: neurotrophin-3, recombinant protein; HSC-derived hepatocyte mitogen, ligand of TRKA, TRKB, TRKC
EdU+ cells compared to vehicle only [1]: significantly increased EdU+ cells | EdU+ cells compared to vehicle alone, taletrectinib experiment ([1]; NTF3 20 ng/ml (FIG. 19C-D)): significant increase of EdU+ cells | EdU+ nuclei compared to vehicle only [2]: increased EdU+ nuclei

B1: BDNF: brain-derived neurotrophic factor, neurotrophin specific for TrkB (protein)
chain: HSDPARRGELSVCDSISEWVTAADKKTAVDMSGGTVTVLEKVPVSKGQLKQYFYETKCNPMGYTKEGCRGIDKRHWNSQCRTTQSYVRALTMDSKKRIGWRFIRIDTSCVCTLTIKRGR
EdU+ cells compared to vehicle only [1]: significantly increased EdU+ cells | EdU+ nuclei compared to vehicle only [2]: increased EdU+ nuclei

B2: HGF: hepatocyte growth factor, complete hepatocyte mitogen used as comparator (protein, UniProt Q08048 33-495; Q08048 496-728, looked up)
Hepatocyte growth factor …: QKKRRNTLHEFKKSAKTTLTKEDPLLKIKTKKVNSADECANRCIRNRGFTFTCKAFVFDKSRKRCYWYPFNSMSSGVKKGFGHEFDLYENKDYIRNCIIGKGGSYKGTVSITKSGIKCQPWNSMIPHEHSFLPSSYRGKDLQENYCRNPRGEEGGPWCFTSNPEVRYEVCDIPQCSEVECMTCNGESYRGPMDHTESGKTCQRWDQQTPHRHKFLPERYPDKGFDDNYCRNPDGKPRPWCYTLDPDTPWEYCAIKTCAHSAVNETDVPMETTECIQGQGEGYRGTSNTIWNGIPCQRWDSQYPHKHDITPENFKCKDLRENYCRNPDGAESPWCFTTDPNIRVGYCSQIPKCDVSSGQDCYRGNGKNYMGNLSKTRSGLTCSMWDKNMEDLHRHIFWEPDASKLNKNYCRNPDDDAHGPWCYTGNPLIPWDYCPISRCEGDTTPTIVNLDHPVISCAKTKQLR
Hepatocyte growth factor beta …: VVNGIPTQTTVGWMVSLKYRNKHICGGSLIKESWVLTARQCFPARNKDLKDYEAWLGIHDVHERGEEKRKQILNISQLVYGPEGSDLVLLKLARPAILDNFVSTIDLPSYGCTIPEKTTCSIYGWGYTGLINADGLLRVAHLYIMGNEKCSQHHQGKVTLNESELCAGAEKIGSGPCEGDYGGPLICEQHKMRMVLGVIVPGRGCAIPNRPGIFVRVAYYAKWIHKVILTYKL
EdU+ cells compared to vehicle only [1]: significantly increased EdU+ cells | EdU+ nuclei compared to vehicle only [2]: increased EdU+ nuclei
